The results in this text go back to patent publication US20180072807A1 (UNIVERSITAT STUTTGART, published 2018).

One experiment has as its target T1, human serum albumin (human, UniProt P02768 25-609).
T1 construct: also called HSA
Put plainly: size exclusion chromatography after incubation with albumin. In general terms: In gel filtration, larger molecules generally elute earlier.

The next experiment deals with T2, mouse serum albumin (mouse, UniProt P07724 25-608).
T2 construct: also called MSA
Described as above.

Experiment [1] addresses T3, proapoptotic TRAIL receptor DR4 (TRAIL R1) (UniProt O00220 24-468, limits assumed).
T3 construct: whole, on cells; Endogenous receptor on cell lines
Put plainly: flow cytometry on EGFR low/negative HepG2 cells; detection with anti-TRAIL mAb.

The target of experiment [2] is EGF receptor (EGFR, erbB1) (human, UniProt P00533 25-1210). Put plainly: cell-based or functional assay.

B1: dimeric EGFR-specific TRAIL fusion protein of SEQ ID NO: 126 with an albumin binding domain (ABD) at the C-terminus (other)
chain: LEASDYKDDDDKGAEVQLVESGGGLVQPGGSLRLSCAASGFSLTNYGVHWVRQAPGKGLEWLGVIWSGGNTDYNTPFTSRFTISRDNSKNTLYLQMNSLRAEDTAVYYCARALTYYDYEFAYWGQGTTVTVSSGGGGSDIQLTQSPSFLSASVGDRVTITCRASQSIGTNIHWYQQKPGKAPKLLIKYASESISGVPSRFSGSGSGTEFTLTISSLQPEDFATYYCQQNNNWPTTFGAGTKLEIKRAAAGNGTSNGTSEFTRGTSEETISTVQEKQQNISPLVRERGPQRVAAHITGTRGRSNTLSSPNSKNEKALGRKINSWESSRSGHSFLSNLHLRNGELVIHEKGFYYIYSQTYFRFQEEIKENTKNDKQMVQYIYKYTSYPDPILLMKSARNSCWSKDAEYGLYSIYQGGIFELKENDRIFVSVTNEHLIDMDHEASFFGAFLVGGGGSGGGSTSEETISTVQEKQQNISPLVRERGPQRVAAHITGTRGRSNTLSSPNSKNEKALGRKINSWESSRSGHSFLSNLHLRNGELVIHEKGFYYIYSQTYFRFQEEIKENTKNDKQMVQYIYKYTSYPDPILLMKSARNSCWSKDAEYGLYSIYQGGIFELKENDRIFVSVTNEHLIDMDHEASFFGAFLVGGGGSGGGSTSEETISTVQEKQQNISPLVRERGPQRVAAHITGTRGRSNTLSSPNSKNEKALGRKINSWESSRSGHSFLSNLHLRNGELVIHEKGFYYIYSQTYFRFQEEIKENTKNDKQMVQYIYKYTSYPDPILLMKSARNSCWSKDAEYGLYSIYQGGIFELKENDRIFVSVTNEHLIDMDHEASFFGAFLVGGGSGGQHDEAVDANSLAEAKVLANRELDKYGVSDYYKNLINNAKTVEGVKALIDEILAALP
As for B1, the binding result in the experiment with human serum albumin and in the experiment with mouse serum albumin was “binds” in each case.

B2: dimeric EGFR-specific TRAIL fusion protein of SEQ ID NO: 125 with an albumin binding domain (ABD) between component B and components A (other)
chain: LEASDYKDDDDKGAEVQLVESGGGLVQPGGSLRLSCAASGFSLTNYGVHWVRQAPGKGLEWLGVIWSGGNTDYNTPFTSRFTISRDNSKNTLYLQMNSLRAEDTAVYYCARALTYYDYEFAYWGQGTTVTVSSGGGGSDIQLTQSPSFLSASVGDRVTITCRASQSIGTNIHWYQQKPGKAPKLLIKYASESISGVPSRFSGSGSGTEFTLTISSLQPEDFATYYCQQNNNWPTTFGAGTKLEIKRGGSQHDEAVDANSLAEAKVLANRELDKYGVSDYYKNLINNAKTVEGVKALIDEILAALPAAAGNGTSNGTSEFTRGTSEETISTVQEKQQNISPLVRERGPQRVAAHITGTRGRSNTLSSPNSKNEKALGRKINSWESSRSGHSFLSNLHLRNGELVIHEKGFYYIYSQTYFRFQEEIKENTKNDKQMVQYIYKYTSYPDPILLMKSARNSCWSKDAEYGLYSIYQGGIFELKENDRIFVSVTNEHLIDMDHEASFFGAFLVGGGGSGGGSTSEETISTVQEKQQNISPLVRERGPQRVAAHITGTRGRSNTLSSPNSKNEKALGRKINSWESSRSGHSFLSNLHLRNGELVIHEKGFYYIYSQTYFRFQEEIKENTKNDKQMVQYIYKYTSYPDPILLMKSARNSCWSKDAEYGLYSIYQGGIFELKENDRIFVSVTNEHLIDMDHEASFFGAFLVGGGGSGGGSTSEETISTVQEKQQNISPLVRERGPQRVAAHITGTRGRSNTLSSPNSKNEKALGRKINSWESSRSGHSFLSNLHLRNGELVIHEKGFYYIYSQTYFRFQEEIKENTKNDKQMVQYIYKYTSYPDPILLMKSARNSCWSKDAEYGLYSIYQGGIFELKENDRIFVSVTNEHLIDMDHEASFFGAFLVG
For B2, the binding result in the experiment with human serum albumin and with mouse serum albumin was “binds” in each case.

B3: EGFR-specific TRAIL fusion protein according to SEQ ID NO: 102 (FLAG tag, huC225 VH, GGGGS linker L, VL, linker X, scTRAIL) (other)
chain: LEASDYKDDDDKGAEVQLVESGGGLVQPGGSLRLSCAASGFSLTNYGVHWVRQAPGKGLEWLGVIWSGGNTDYNTPFTSRFTISRDNSKNTLYLQMNSLRAEDTAVYYCARALTYYDYEFAYWGQGTTVTVSSGGGGSDIQLTQSPSFLSASVGDRVTITCRASQSIGTNIHWYQQKPGKAPKLLIKYASESISGVPSRFSGSGSGTEFTLTISSLQPEDFATYYCQQNNNWPTTFGAGTKLEIKRAAAEFTRGTSEETISTVQEKQQNISPLVRERGPQRVAAHITGTRGRSNTLSSPNSKNEKALGRKINSWESSRSGHSFLSNLHLRNGELVIHEKGFYYIYSQTYFRFQEEIKENTKNDKQMVQYIYKYTSYPDPILLMKSARNSCWSKDAEYGLYSIYQGGIFELKENDRIFVSVTNEHLIDMDHEASFFGAFLVGGGGSGGGSTSEETISTVQEKQQNISPLVRERGPQRVAAHITGTRGRSNTLSSPNSKNEKALGRKINSWESSRSGHSFLSNLHLRNGELVIHEKGFYYIYSQTYFRFQEEIKENTKNDKQMVQYIYKYTSYPDPILLMKSARNSCWSKDAEYGLYSIYQGGIFELKENDRIFVSVTNEHLIDMDHEASFFGAFLVGGGGSGGGSTSEETISTVQEKQQNISPLVRERGPQRVAAHITGTRGRSNTLSSPNSKNEKALGRKINSWESSRSGHSFLSNLHLRNGELVIHEKGFYYIYSQTYFRFQEEIKENTKNDKQMVQYIYKYTSYPDPILLMKSARNSCWSKDAEYGLYSIYQGGIFELKENDRIFVSVTNEHLIDMDHEASFFGAFLVG
notes: Made in HEK293 cells; The FLAG tag was kept for purification; also called divalent TRAIL fusion protein; dimeric TRAIL fusion protein
Take B3: the binding result in experiment [1] is on record as “binds”.

B4: EGFR-specific TRAIL fusion protein of SEQ ID NO: 96 (FLAG tag, huC225 VH, (GGGGS)3 linker L, VL, linker X, scTRAIL) (other)
chain: LEASDYKDDDDKGAEVQLVESGGGLVQPGGSLRLSCAASGFSLTNYGVHWVRQAPGKGLEWLGVIWSGGNTDYNTPFTSRFTISRDNSKNTLYLQMNSLRAEDTAVYYCARALTYYDYEFAYWGQGTTVTVSSGGGGSGGGGSGGGGSDIQLTQSPSFLSASVGDRVTITCRASQSIGTNIHWYQQKPGKAPKLLIKYASESISGVPSRFSGSGSGTEFTLTISSLQPEDFATYYCQQNNNWPTTFGAGTKLEIKRAAAEFTRGTSEETISTVQEKQQNISPLVRERGPQRVAAHITGTRGRSNTLSSPNSKNEKALGRKINSWESSRSGHSFLSNLHLRNGELVIHEKGFYYIYSQTYFRFQEEIKENTKNDKQMVQYIYKYTSYPDPILLMKSARNSCWSKDAEYGLYSIYQGGIFELKENDRIFVSVTNEHLIDMDHEASFFGAFLVGGGGSGGGSTSEETISTVQEKQQNISPLVRERGPQRVAAHITGTRGRSNTLSSPNSKNEKALGRKINSWESSRSGHSFLSNLHLRNGELVIHEKGFYYIYSQTYFRFQEEIKENTKNDKQMVQYIYKYTSYPDPILLMKSARNSCWSKDAEYGLYSIYQGGIFELKENDRIFVSVTNEHLIDMDHEASFFGAFLVGGGGSGGGSTSEETISTVQEKQQNISPLVRERGPQRVAAHITGTRGRSNTLSSPNSKNEKALGRKINSWESSRSGHSFLSNLHLRNGELVIHEKGFYYIYSQTYFRFQEEIKENTKNDKQMVQYIYKYTSYPDPILLMKSARNSCWSKDAEYGLYSIYQGGIFELKENDRIFVSVTNEHLIDMDHEASFFGAFLVG
notes: also called VH-VL-scTRAIL
Turning to B4, the “apoptosis-inducing activity on EGFR-positive Huh-7 cells compared to scTRAIL (SEQ ID NO: 104)” value in experiment [2] was 10 fold. For the same molecule, the binding result in experiment [1] is listed as “binds”.
